One data set deals with T1, AcXbh30A-CD (Acetivibrio clariflavus, UniProt G8LU16).
T1 construct: gene Clocl_1795; GH30 catalytic domain only, secretion leader and C-terminal type I dockerin removed, C-terminal His-tag, pET28 expression, ca. 50 kDa, apparent monomer
T1 sequence (G8LU16 29-455 limits assumed): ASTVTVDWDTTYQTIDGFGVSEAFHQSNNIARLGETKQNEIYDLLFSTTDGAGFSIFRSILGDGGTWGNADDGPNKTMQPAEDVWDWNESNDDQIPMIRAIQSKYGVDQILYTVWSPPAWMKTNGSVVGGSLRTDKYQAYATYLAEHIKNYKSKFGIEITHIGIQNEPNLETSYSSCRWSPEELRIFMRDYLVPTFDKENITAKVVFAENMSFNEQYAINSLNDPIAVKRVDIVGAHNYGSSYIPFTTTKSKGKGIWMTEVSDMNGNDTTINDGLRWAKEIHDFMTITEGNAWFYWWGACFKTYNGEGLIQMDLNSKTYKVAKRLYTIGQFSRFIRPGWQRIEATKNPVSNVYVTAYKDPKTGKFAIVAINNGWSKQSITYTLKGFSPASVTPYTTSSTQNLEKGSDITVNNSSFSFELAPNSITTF
In words: pNP-X2 hydrolysis, non-linear competitive inhibition fit. The data set is classed as biochemical. The settings on record: competitive product inhibition; substrate pNP-X2; 30 mM sodium acetate pH 4.0, 0.02 mg/ml BSA, 65 C; read-out: AcXbh30A pNP-X2 kinetic values^a ^, ^b / 116.4 ± 3.23 μM. From the text: pNP-X2 hydrolysis, non-linear competitive inhibition fit on AcXbh30A-CD

Substrate in the data set “purified protein”: O=[N+]([O-])c1ccc(O[C@@H]2OC[C@@H](O[C@@H]3OC[C@@H](O)[C@H](O)[C@H]3O)[C@H](O)[C@H]2O)cc1
In words: purified protein. The data set is classed as biochemical, Acetivibrio clariflavus. The settings on record: 30 mM sodium acetate pH 4.0, 0.02 mg/ml BSA, 65 C, 10 min.

Broadly, the Km is the concentration of substrate that gives half-maximal velocity. As a reminder, the kcat is the number of substrate molecules converted per active site and unit of time at saturation.

Regarding `OC1OC[C@@H](O[C@@H]2OC[C@@H](O)[C@H](O)[C@H]2O)[C@H](O)[C@H]1O` (some centres unmarked) [X2], on AcXbh30A-CD, the Ki amounted to 2400 µM.

B1: AcXbh30A-CD (Acetivibrio clariflavus DSM 19732) (protein)
chain: T1 sequence (G8LU16 29-455 limits assumed)
notes: GH30 catalytic domain only, secretion leader and C-terminal type I dockerin removed, C-terminal His-tag, pET28 expression, ca. 50 kDa, apparent monomer
As for B1, in the data set “purified protein”, the Michaelis constant (Km) was 116.4 ± 3.23 µM, the Vmax is 183.1 ± 1.13 U mg^−1, the kcat was determined as 152.7 s⁻¹ and the kcat/Km is 1,311.6 s^−1 mM^−1.

Values taken from PMC8453022, “A New Subfamily of Glycoside Hydrolase Family 30 with Strict Xylobiohydrolase Function” (Frontiers in Molecular Biosciences, 2021).
